Experimental data taken from the supplement of paper PMC9732359.
± gives the uncertainty stated by the source.

Assay: protein stability index of a GFP-peptide fusion (yeast GPS) (PSI 1-4); higher = more stable; sorted into four equal gates, so the index is relative within each strain
In short: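 Tiled 17-residue peptides from yeast proteins were fused downstream of GFP on a plasmid that also expresses Cherry, and the pooled library was carried in yeast. Mid-log cultures grown in leucine-free medium were sorted into four equal gates by GFP/Cherry fluorescence ratio. Plasmids from each gate were PCR-amplified and Illumina-sequenced, and reads were assigned to strains by barcodes. Each peptide's protein stability index is the sum, over gates, of the gate's read frequency multiplied by its gate number.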

TPMDESSYDLLFNESFI [SRP72]
protein stability index (doa10∆): 3.07 ± 0.1
protein stability index (pdr5∆): 2.98 ± 0.1
protein stability index (san1∆): 2.7 ± 0.1
protein stability index (ubr1∆): 3.12 ± 0.052

PLLARKQFVVDVLHPNR [RPS24A]
protein stability index (doa10∆): 1.58 ± 0.14
protein stability index (pdr5∆): 1.83 ± 0.072
protein stability index (san1∆): 1.72 ± 0.12
protein stability index (ubr1∆): 1.62 ± 0.071

NSTHLLPLQPIEIDYTV [SNF12]
protein stability index (doa10∆): 2.34 ± 0.044
protein stability index (pdr5∆): 2.27 ± 0.044
protein stability index (san1∆): 2.27 ± 0.051
protein stability index (ubr1∆): 2.21 ± 0.036

IEPVTKVSSLKMFIQRI [YCS4]
protein stability index (doa10∆): 2.91 ± 0.064
protein stability index (pdr5∆): 2.9 ± 0.065
protein stability index (san1∆): 3.17 ± 0.048
protein stability index (ubr1∆): 3.31 ± 0.065

LPNQFPLKIHRTPYLTS [SWI1]
protein stability index (doa10∆): 2.07 ± 0.042
protein stability index (pdr5∆): 1.72 ± 0.045
protein stability index (san1∆): 1.65 ± 0.074
protein stability index (ubr1∆): 1.72 ± 0.038

NLYDDVKCWSKFIEKFQ [MED1]
protein stability index (pdr5∆): 3.07 ± 0.11
protein stability index (san1∆): 3.27 ± 0.14
protein stability index (ubr1∆): 3.58 ± 0.29

NTTDPLGHTKAALGEVA [SIR2]
protein stability index (doa10∆): 2.51 ± 0.065
protein stability index (pdr5∆): 2.69 ± 0.078
protein stability index (san1∆): 2.67 ± 0.088
protein stability index (ubr1∆): 3.08 ± 0.069

NDFFDNGDNLYGNDEEV [RPN4]
protein stability index (doa10∆): 1.21 ± 0.2
protein stability index (pdr5∆): 1.62 ± 0.29
protein stability index (ubr1∆): 1.05 ± 0.067

DEKNKNNNEDNENNNNS [MED2]
protein stability index (doa10∆): 3.11 ± 0.084
protein stability index (pdr5∆): 3.39 ± 0.069
protein stability index (san1∆): 3.17 ± 0.062
protein stability index (ubr1∆): 3.28 ± 0.064

NYYSNKSNSTGNISSST [REC8]
protein stability index (doa10∆): 2.79 ± 0.1
protein stability index (pdr5∆): 3.02 ± 0.099
protein stability index (san1∆): 2.85 ± 0.059
protein stability index (ubr1∆): 3.09 ± 0.064

SKINSTELLDYATKLSK [MED4]
protein stability index (doa10∆): 2.79 ± 0.23
protein stability index (pdr5∆): 2.72 ± 0.12
protein stability index (san1∆): 2.49 ± 0.072
protein stability index (ubr1∆): 2.94 ± 0.15

LSQSSSYLETLTALGKE [MED2]
protein stability index (doa10∆): 3.12 ± 0.097
protein stability index (pdr5∆): 3.04 ± 0.099
protein stability index (san1∆): 2.66 ± 0.084
protein stability index (ubr1∆): 2.44 ± 0.07

QFKTTIKDTANDNDITV [UBP6]
protein stability index (doa10∆): 2.45 ± 0.11
protein stability index (pdr5∆): 2.09 ± 0.074
protein stability index (san1∆): 2.19 ± 0.084
protein stability index (ubr1∆): 1.67 ± 0.041

NVSNTFNKTTNIDINNE [YJL041W/NSP1]
protein stability index (doa10∆): 3.1 ± 0.068
protein stability index (pdr5∆): 3.28 ± 0.065
protein stability index (san1∆): 2.68 ± 0.073
protein stability index (ubr1∆): 3.08 ± 0.051

NRLEKEQSVKTQNSRHY [LIN1]
protein stability index (doa10∆): 2.44 ± 0.13
protein stability index (pdr5∆): 2.85 ± 0.12
protein stability index (san1∆): 2.52 ± 0.13
protein stability index (ubr1∆): 2.49 ± 0.096

KNFENGPKKNVFYAPNV [RPC34]
protein stability index (doa10∆): 2.99 ± 0.068
protein stability index (pdr5∆): 2.94 ± 0.071
protein stability index (san1∆): 2.66 ± 0.084
protein stability index (ubr1∆): 3.14 ± 0.063

QEAFKIYQHLASHNEKD [SRP72]
protein stability index (doa10∆): 1.89 ± 0.082
protein stability index (pdr5∆): 3.08 ± 0.1
protein stability index (san1∆): 2.93 ± 0.15
protein stability index (ubr1∆): 2.89 ± 0.1

ALAEGHGDAAVLLVEKY [NAS6]
protein stability index (pdr5∆): 3.12 ± 0.1
protein stability index (san1∆): 3.04 ± 0.09
protein stability index (ubr1∆): 2.6 ± 0.11

TLVGGGAKITPEMIKRS [RRP43]
protein stability index (pdr5∆): 3.29 ± 0.29
protein stability index (san1∆): 2.74 ± 0.22

DNYFNLQLNEAEEFVAG [SMX3]
protein stability index (doa10∆): 2.76 ± 0.16
protein stability index (pdr5∆): 2.8 ± 0.16
protein stability index (san1∆): 2.5 ± 0.1
protein stability index (ubr1∆): 3.12 ± 0.12

IKRTDEGGEAEFIFGTY [ARP7]
protein stability index (doa10∆): 3.35 ± 0.093
protein stability index (pdr5∆): 3.3 ± 0.11
protein stability index (san1∆): 3.37 ± 0.056
protein stability index (ubr1∆): 3.36 ± 0.045

EDPVTVEYLTRYVAGVQ [PRE6]
protein stability index (doa10∆): 2.39 ± 0.058
protein stability index (pdr5∆): 2.39 ± 0.07
protein stability index (san1∆): 2.54 ± 0.051
protein stability index (ubr1∆): 2.54 ± 0.067

QYMEELADDDEERFSEL [RPL5]
protein stability index (doa10∆): 1.12 ± 0.14
protein stability index (pdr5∆): 1.14 ± 0.18

RVEKIPEIPLVVSTDLE [RPL4A]
protein stability index (pdr5∆): 2.93 ± 0.3
protein stability index (ubr1∆): 2.77 ± 0.22

FEFQYLTIGVKFFMKHG [SRB5]
protein stability index (doa10∆): 1.18 ± 0.046
protein stability index (pdr5∆): 1.34 ± 0.047
protein stability index (san1∆): 1.21 ± 0.066
protein stability index (ubr1∆): 1.18 ± 0.035

IKLDIVVGQNQLIDQFE [SNF5]
protein stability index (doa10∆): 1.88 ± 0.075
protein stability index (pdr5∆): 2.07 ± 0.098
protein stability index (san1∆): 2.11 ± 0.092
protein stability index (ubr1∆): 2.25 ± 0.085

NGTMINEVIDKLKNENT [PCI8]
protein stability index (doa10∆): 2.84 ± 0.056
protein stability index (pdr5∆): 2.91 ± 0.052
protein stability index (san1∆): 2.84 ± 0.047
protein stability index (ubr1∆): 3.09 ± 0.037

QGLKLAKKHKLNAITLD [SMC3]
protein stability index (doa10∆): 2.4 ± 0.21
protein stability index (pdr5∆): 2.64 ± 0.29

TSAVELGAIEQILIFAA [YJL039C/NUP192]
protein stability index (doa10∆): 2.13 ± 0.16
protein stability index (pdr5∆): 2.77 ± 0.071
protein stability index (san1∆): 1.77 ± 0.11
protein stability index (ubr1∆): 3.32 ± 0.13

SDIIILKGEIEDYPMSS [SIR4]
protein stability index (san1∆): 3.12 ± 0.24
protein stability index (ubr1∆): 3.48 ± 0.16

NDTISEDILQGIFNLLN [NUT1]
protein stability index (doa10∆): 2.38 ± 0.066
protein stability index (pdr5∆): 2.32 ± 0.057
protein stability index (san1∆): 2.13 ± 0.12
protein stability index (ubr1∆): 2.6 ± 0.088

LSGGQKTVCAIALILAI [SMC3]
protein stability index (pdr5∆): 1.94 ± 0.19
protein stability index (ubr1∆): 2.74 ± 0.12

VELLDSNDRVNPLIELT [ITC1]
protein stability index (doa10∆): 3.58 ± 0.11
protein stability index (pdr5∆): 2.5 ± 0.11
protein stability index (san1∆): 3.28 ± 0.075
protein stability index (ubr1∆): 3.02 ± 0.069

ALSGLYYKNFHNSVKRY [SNM1]
protein stability index (doa10∆): 1.59 ± 0.27
protein stability index (san1∆): 1.17 ± 0.17
protein stability index (ubr1∆): 1.22 ± 0.093

ARGMTSKPAGFMKKLRA [RPS15]
protein stability index (doa10∆): 3.15 ± 0.16
protein stability index (san1∆): 2.64 ± 0.26
protein stability index (ubr1∆): 3.6 ± 0.14

KIESLAGGGESDSALIL [UBP6]
protein stability index (doa10∆): 3.25 ± 0.18
protein stability index (san1∆): 3.49 ± 0.11
protein stability index (ubr1∆): 3.12 ± 0.25

STVASALDTNGTSATTE [SIR4]
protein stability index (doa10∆): 2.2 ± 0.075
protein stability index (pdr5∆): 2.15 ± 0.065
protein stability index (san1∆): 2.91 ± 0.064
protein stability index (ubr1∆): 1.88 ± 0.045

NRQICLVQKTVQESGNI [GRR1]
protein stability index (doa10∆): 3.44 ± 0.16
protein stability index (pdr5∆): 3.21 ± 0.077
protein stability index (san1∆): 2.81 ± 0.064
protein stability index (ubr1∆): 2.69 ± 0.1

GKKVLNKNQLLKRNRIR [POP1]
protein stability index (doa10∆): 2.88 ± 0.068
protein stability index (pdr5∆): 3.08 ± 0.055
protein stability index (san1∆): 2.94 ± 0.064
protein stability index (ubr1∆): 3.05 ± 0.053

YSLRLINKEIFHHWLVE [SRB8]
protein stability index (doa10∆): 1.75 ± 0.064
protein stability index (pdr5∆): 1.52 ± 0.081
protein stability index (san1∆): 1.55 ± 0.13
protein stability index (ubr1∆): 1.59 ± 0.068

NSGNSNSNSNQQSTDAD [RPT1]
protein stability index (doa10∆): 2.59 ± 0.081
protein stability index (pdr5∆): 2.48 ± 0.081
protein stability index (san1∆): 2.48 ± 0.09
protein stability index (ubr1∆): 2.64 ± 0.052

GGKIINKLGNDPSLNLK [BRR2]
protein stability index (doa10∆): 2.27 ± 0.059
protein stability index (pdr5∆): 1.76 ± 0.073
protein stability index (san1∆): 1.91 ± 0.072
protein stability index (ubr1∆): 2.16 ± 0.057

NGVIIAADNLGSYGSLL [PRE4]
protein stability index (doa10∆): 3.05 ± 0.13
protein stability index (pdr5∆): 3.15 ± 0.13
protein stability index (san1∆): 2.92 ± 0.21
protein stability index (ubr1∆): 3.12 ± 0.2

NAGTNDNSFNELTDNMS [MCD1]
protein stability index (doa10∆): 3.01 ± 0.082
protein stability index (pdr5∆): 3.13 ± 0.076
protein stability index (san1∆): 3.15 ± 0.042
protein stability index (ubr1∆): 3.3 ± 0.05

ESSSEDDYEDQDDDDYV [IRR1]
protein stability index (doa10∆): 3.58 ± 0.16
protein stability index (pdr5∆): 3.52 ± 0.11
protein stability index (ubr1∆): 3.65 ± 0.16

SYKDSGLWGFSTATRNV [COR1]
protein stability index (doa10∆): 2.98 ± 0.086
protein stability index (pdr5∆): 3.11 ± 0.094
protein stability index (san1∆): 3.19 ± 0.064
protein stability index (ubr1∆): 3.16 ± 0.084

KNDEVLGLLLPIAASTD [RPN1]
protein stability index (doa10∆): 2.02 ± 0.055
protein stability index (pdr5∆): 2.3 ± 0.062
protein stability index (san1∆): 2.47 ± 0.063
protein stability index (ubr1∆): 2.6 ± 0.071

MLSFCPSCNNMLLITSG [RPC11]
protein stability index (doa10∆): 1.26 ± 0.082
protein stability index (pdr5∆): 2.97 ± 0.13
protein stability index (ubr1∆): 2.83 ± 0.072

NTFGSSSLFNNSTNSNT [YJL041W/NSP1]
protein stability index (doa10∆): 2.42 ± 0.06
protein stability index (pdr5∆): 2.44 ± 0.053
protein stability index (san1∆): 3.12 ± 0.041
protein stability index (ubr1∆): 2.5 ± 0.05

ESSINTHPHAADGSSYM [SKI6]
protein stability index (doa10∆): 2.98 ± 0.047
protein stability index (pdr5∆): 3.22 ± 0.039
protein stability index (san1∆): 3 ± 0.035
protein stability index (ubr1∆): 3.05 ± 0.036

IKEKVQFNATINPESRE [ITC1]
protein stability index (doa10∆): 1.67 ± 0.046
protein stability index (pdr5∆): 1.6 ± 0.044
protein stability index (san1∆): 1.97 ± 0.073
protein stability index (ubr1∆): 2.07 ± 0.037

MKESVVEINSSESDLDE [ESC2]
protein stability index (doa10∆): 3.35 ± 0.071
protein stability index (pdr5∆): 3.06 ± 0.086
protein stability index (san1∆): 3.06 ± 0.079
protein stability index (ubr1∆): 3.16 ± 0.068
